From patent US20090227507A1, “Angiotensin (1-7) Dosage Forms and Uses Thereof” (UNIVERSITY OF SOUTHERN CALIFORNIA, priority 2008, published 2009)

What was measured:
lymphocyte numbers = experiment: Lymphocyte recovery after subcutaneous TXA127 in subjects without HIV infection (breast cancer subjects receiving chemotherapy); type: in vivo; settings: human subjects without HIV infection (e.g., breast cancer subjects receiving cancer chemotherapy)
Text: In the absence of effective antiretroviral therapy, HIV disease is characterized by the relentless destruction of CD4+ T-lymphocytes resulting in disordered and declining immune function.

[1] = Clinical chemistry in healthy men; settings: for Potassium shift H-N, number of subjects / Potassium shift L-N, number of subjects / Potassium shift N-H, number of subjects / Potassium shift N-L, number of subjects: Chemistry; for AST/SGOT High/Low Normal/Abnormal: Subject 027, 200 μg/kg
Procedure: Safety evaluations are based on AEs, PEs, vital signs, temperature, and laboratory results from baseline to study completion. Laboratory measurements were conducted by a local clinical laboratory. Using standard procedures, blood samples were drawn or urine collected from subjects for the following laboratory tests:
Aspartate aminotransferase (AST), alanine aminotransferase (ALT), gamma, glutamyltranferase (GGT), creatinine, creatine kinase, sodium, potassium, bicarbonate (CO2), chloride, glucose, magnesium, calcium, inorganic phosphorous, blood urea nitrogen (BUN), total protein, albumin, total bilirubin, direct and indirect bilirubin, uric acid, and alkaline phosphatase,

[2] = Renal laboratory values (serum creatinine, creatinine clearance, 24-hour urine) in healthy men; settings: human, in vivo
Procedure: USB003 was administered SC in the abdomen by a qualified study staff member 24 hours after the previous (Day 6) injection.
Blood, urobilinogen, ketones, glucose, protein, microscopic examination of sediment, sodium, and potassium.

[3] = 200 μg/kg, N = 9, baseline to Day 8
[4] = 300 μg/kg, N = 8, baseline to Day 8

Asp-Arg-Val-Tyr-Ile-His-Pro [USB003]
3 of the 9: subjects with creatinine clearance shifted from low to normal ([2]; 200 ug/kg)
1: ALT (SGPT) shift N-H, number of subjects [1, 3] | AST (SGOT) shift N-H, number of subjects [1, 3] | BUN shift L-N, number of subjects [1, 3] | Magnesium shift N-L, number of subjects [1, 3] | Total CPK shift H-N, number of subjects [1, 3] | BUN shift L-N, number of subjects [1, 4] | Magnesium shift L-N, number of subjects [1, 4] | Potassium shift H-N, number of subjects [1, 4] | Potassium shift N-L, number of subjects [1, 4] | Creatinine Clearance shift N-L, number of subjects ([2]; 300 ug/kg)
N: AST/SGOT High/Low Normal/Abnormal ([1]; Day 7 U (unscheduled)) | AST/SGOT High/Low Normal/Abnormal ([1]; Day 8)
103 IU/L: ALT, Subject 009 ([1]; 200 μg/kg, Day 8)
61 IU/L: ALT, Subject 009 ([1]; 200 μg/kg, Day 14)
increase: creatinine clearance ([2]; 200 ug/kg)
2: Creatinine Clearance shift L-N, number of subjects ([2]; 300 ug/kg)
66 IU/L: AST, Subject 009 ([1]; 200 μg/kg, Day 8)
2 of the 8: subjects with creatinine clearance shifted from low to normal ([2]; 300 ug/kg)
dramatic recovery of lymphocyte numbers: lymphocyte numbers following subcutaneous injection (lymphocyte numbers)
— (“—” = 0): ALT (SGPT) shift H-N, number of subjects [1, 3] | ALT (SGPT) shift L-N, number of subjects [1, 3] | ALT (SGPT) shift N-L, number of subjects [1, 3] | AST (SGOT) shift H-N, number of subjects [1, 3] | AST (SGOT) shift L-N, number of subjects [1, 3] | AST (SGOT) shift N-L, number of subjects [1, 3] | BUN shift H-N, number of subjects [1, 3] | BUN shift N-H, number of subjects [1, 3] | BUN shift N-L, number of subjects [1, 3] | Magnesium shift H-N, number of subjects [1, 3] | Magnesium shift L-N, number of subjects [1, 3] | Magnesium shift N-H, number of subjects [1, 3] | Total CPK shift L-N, number of subjects [1, 3] | Total CPK shift N-H, number of subjects [1, 3] | Total CPK shift N-L, number of subjects [1, 3] | ALT (SGPT) shift H-N, number of subjects [1, 4] | ALT (SGPT) shift L-N, number of subjects [1, 4] | ALT (SGPT) shift N-H, number of subjects [1, 4] | ALT (SGPT) shift N-L, number of subjects [1, 4] | AST (SGOT) shift H-N, number of subjects [1, 4] | AST (SGOT) shift L-N, number of subjects [1, 4] | AST (SGOT) shift N-H, number of subjects [1, 4] | AST (SGOT) shift N-L, number of subjects [1, 4] | BUN shift H-N, number of subjects [1, 4] | BUN shift N-H, number of subjects [1, 4] | BUN shift N-L, number of subjects [1, 4] | Magnesium shift H-N, number of subjects [1, 4] | Magnesium shift N-H, number of subjects [1, 4] | Magnesium shift N-L, number of subjects [1, 4] | Total CPK shift H-N, number of subjects [1, 4] | Total CPK shift L-N, number of subjects [1, 4] | Total CPK shift N-H, number of subjects [1, 4] | Total CPK shift N-L, number of subjects [1, 4] | Potassium shift H-N, number of subjects [1, 3] | Potassium shift L-N, number of subjects [1, 3] | Potassium shift N-H, number of subjects [1, 3] | Potassium shift N-L, number of subjects [1, 3] | Potassium shift L-N, number of subjects [1, 4] | Potassium shift N-H, number of subjects [1, 4]
no notable effects: mean change from baseline on any serum chemistry evaluations ([1]; baseline to Day 4 or Day 8)
3: Creatinine Clearance shift L-N, number of subjects ([2]; 200 ug/kg)
not observed: increase in creatinine clearance ([2]; 300 ug/kg)
29 IU/L: AST, Subject 009 ([1]; 200 μg/kg, Day 14)
